US20220017583A1

Target: amyloid β (1-28) (UniProt P05067)
Assay: trapping on beads in buffer, eluate by MALDI-TOF MS; ratio of detection limits

Sequence of UniProt P05067 (P05067 672-699 limits assumed): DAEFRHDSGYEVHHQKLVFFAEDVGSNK

fold sensitivity against the IgG-protein G beads of each kind: 5 times
Substance: 6E10 F(ab′)-PEG24 beads (Fab)
